Publication PMC6511849 (Nucleic Acids Research, 2019)
Each block holds one molecule with its values, some of them ahead of it. Non-standard residues stand in square brackets, D forms with d. No end group written: not given here. *: point of attachment. FITC = O=C1OC2(c3ccc(O)cc3Oc3cc(O)ccc32)c2ccc(NC(=S)*)cc21; pS = N[C@@H](COP(=O)(O)O)C(=O)O; Ahx = NCCCCCC(=O)O

B1: D3P peptide with Glu for Tyr at position 1 (ERERERER backbone with phosphoserine at position 5) (peptide)
peptide: {FITC-Ahx}-ERER[pS]RER
B2: transportin 3 (TNPO3) (natural protein)
chain: MEGAKPTLQLVYQAVQALYHDPDPSGKERASFWLGELQRSVHAWEISDQLLQIRQDVESCYFAAQTMKMKIQTSFYELPTDSHASLRDSLLTHIQNLKDLSPVIVTQLALAIADLALQMPSWKGCVQTLVEKYSNDVTSLPFLLEILTVLPEEVHSRSLRIGANRRTEIIEDLAFYSSTVVSLLMTCVEKAGTDEKMLMKVFRCLGSWFNLGVLDSNFMANNKLLALLFEVLQQDKTSSNLHEAASDCVCSALYAIENVETNLPLAMQLFQGVLTLETAYHMAVAREDLDKVLNYCRIFTELCETFLEKIVCTPGQGLGDLRTLELLLICAGHPQYEVVEISFNFWYRLGEHLYKTNDEVIHGIFKAYIQRLLHALARHCQLEPDHEGVPEETDDFGEFRMRVSDLVKDLIFLIGSMECFAQLYSTLKEGNPPWEVTEAVLFIMAAIAKSVDPENNPTLVEVLEGVVRLPETVHTAVRYTSIELVGEMSEVVDRNPQFLDPVLGYLMKGLCEKPLASAAAKAIHNICSVCRDHMAQHFNGLLEIARSLDSFLLSPEAAVGLLKGTALVLARLPLDKITECLSELCSVQVMALKKLLSQEPSNGISSDPTVFLDRLAVIFRHTNPIVENGQTHPCQKVIQEIWPVLSETLNKHRADNRIVERCCRCLRFAVRCVGKGSAALLQPLVTQMVNVYHVHQHSCFLYLGSILVDEYGMEEGCRQGLLDMLQALCIPTFQLLEQQNGLQNHPDTVDDLFRLATRFIQRSPVTLLRSQVVIPILQWAIASTTLDHRDANCSVMRFLRDLIHTGVANDHEEDFELRKELIGQVMNQLGQQLVSQLLHTCCFCLPPYTLPDVAEVLWEIMQVDRPTFCRWLENSLKGLPKETTVGAVTVTHKQLTDFHKQVTSAEECKQVCWALRDFTRLFR

Assays:
TNPO3 = TNPO3 (UniProt Q9Y5L0); assay: fluorescence polarisation titration; details: reference: unmodified D23 peptide
transportin 3 (TNPO3) = molecular target: B2; assay: fluorescence polarisation
[1] = molecular target: CPSF6 D1 peptide (unmodified 8-mer) (human); assay: fluorescence polarisation
[2] = molecular target: CPSF6 D2 peptide (unmodified 8-mer) (human); assay: fluorescence polarisation
[3] = molecular target: ER/S peptide (D3 peptide with Glu for Tyr at position 1) (human) (UniProt Q16630); assay: fluorescence polarisation
Chain of ER/S peptide (D3 peptide with Glu for Tyr at position 1) (human) (Q16630 whole entry, looked up, tested part not stated): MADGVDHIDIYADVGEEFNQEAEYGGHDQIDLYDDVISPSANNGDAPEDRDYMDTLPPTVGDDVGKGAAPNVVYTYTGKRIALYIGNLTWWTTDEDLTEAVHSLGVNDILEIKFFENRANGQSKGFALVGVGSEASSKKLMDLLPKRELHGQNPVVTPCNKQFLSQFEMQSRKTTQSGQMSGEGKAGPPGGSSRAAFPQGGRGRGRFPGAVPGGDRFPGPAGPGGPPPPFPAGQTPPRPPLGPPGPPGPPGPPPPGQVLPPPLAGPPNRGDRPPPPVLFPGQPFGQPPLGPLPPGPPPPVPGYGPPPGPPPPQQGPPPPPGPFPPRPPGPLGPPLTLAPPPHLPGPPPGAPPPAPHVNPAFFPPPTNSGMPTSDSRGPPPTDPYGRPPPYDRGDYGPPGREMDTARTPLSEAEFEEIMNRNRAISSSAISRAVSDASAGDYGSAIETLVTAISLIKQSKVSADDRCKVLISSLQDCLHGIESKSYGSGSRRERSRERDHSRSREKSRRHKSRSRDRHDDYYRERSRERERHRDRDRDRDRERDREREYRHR

[4] = molecular target: SRSF1 RS peptide (unmodified 8-mer); assay: fluorescence polarisation
[5] = molecular target: SRSF1 RSP peptide (phosphorylated 8-mer); assay: fluorescence polarisation
[6] = molecular target: B1; assay: fluorescence polarisation
[7] = molecular target: T1, ERERERER backbone with Tyr at position 1; assay: fluorescence polarisation
T1 peptide: {FITC-Ahx}-YRERERER

CPSF6 D23-4Glu peptide = molecular target: T2, CPSF6 D23-4Glu peptide (human, UniProt Q16630 509-528, K510E | R512E | R522E | R524E, FITC-Ahx label); assay: fluorescence polarisation
T2 peptide: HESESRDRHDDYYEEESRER

CPSF6 D2P-D3 peptide = molecular target: T3, CPSF6 D2P-D3 peptide (human, UniProt Q16630 509-528); assay: fluorescence polarisation
T3 peptide: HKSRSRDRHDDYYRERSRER

[8] = molecular target: GST-RSLD-WT, non-phosphorylated (expressed without CLK1) (human); assay: pull-down
Chain of GST-RSLD-WT, non-phosphorylated (expressed without CLK1) (human) (Q16630 whole entry): as the sequence (Q16630 whole entry, looked up, tested part not stated) above

Molecule: CPSF6 D2-D3 region 20-mer (D23) (from UniProt Q16630) D2P-D3P peptide
fold change (TNPO3; sites S511,S513,S525): stronger

Molecule: B1
Kd (transportin 3 (TNPO3)): 17.1 µM

Molecule: B2
Kd [1]: 141 µM
Kd [2]: > 1000 µM
Kd [3]: > 1000 µM
Kd [4]: > 1000 µM
Kd [5]: 1.3 µM
fold increase of affinity against the ERERERER backbone [6]: ~5 fold
fold increase of affinity against the ERERERER backbone [7]: ~10 fold
fold reduction of affinity against the D23 peptide (CPSF6 D23-4Glu peptide): ~25 fold
fold increase of affinity against the D23 peptide (CPSF6 D2P-D3 peptide): ~3.3 fold
percent of input TNPO3 recovered [8]: 30%

The next lines start with the values.

fold change (TNPO3; sites S525): stronger
Molecule: CPSF6 D2-D3 region 20-mer (D23) (from UniProt Q16630) D2-D3P peptide

fold change (TNPO3; sites S511,S513): stronger
Molecule: CPSF6 D2-D3 region 20-mer (D23) (from UniProt Q16630) D2P-D3 peptide
